Experimental data published in patent US20240092942A1 (LEADARTIS S L, published 2024).

Key:
[1] = biological target: hu4-1BB constitutively expressed on NF-kB-luc2/4-1BB Jurkat reporter cells (Promega, #JA2351) (human, UniProt Q07011 24-255); test: cell-based or functional assay
[2] = biological target: T1, recombinant His-tagged hu4-1BB (Sino Biological, #10014-H08H) (human, UniProt Q07011 24-186); test: titration ELISA on plastic immobilized His-tagged hu4-1BB, GAM-HRP
T1 construct: Bought; also called soluble hu4-1BB; not shown: His tag
T1 sequence (Q07011 24-186 limits assumed): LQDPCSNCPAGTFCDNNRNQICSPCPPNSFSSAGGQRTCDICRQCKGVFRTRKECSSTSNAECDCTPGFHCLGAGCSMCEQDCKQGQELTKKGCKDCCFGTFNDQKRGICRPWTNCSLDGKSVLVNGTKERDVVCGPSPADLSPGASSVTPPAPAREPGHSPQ

Chain of hu4-1BB constitutively expressed on NF-kB-luc2/4-1BB Jurkat reporter cells (Promega, #JA2351) (Q07011 24-255): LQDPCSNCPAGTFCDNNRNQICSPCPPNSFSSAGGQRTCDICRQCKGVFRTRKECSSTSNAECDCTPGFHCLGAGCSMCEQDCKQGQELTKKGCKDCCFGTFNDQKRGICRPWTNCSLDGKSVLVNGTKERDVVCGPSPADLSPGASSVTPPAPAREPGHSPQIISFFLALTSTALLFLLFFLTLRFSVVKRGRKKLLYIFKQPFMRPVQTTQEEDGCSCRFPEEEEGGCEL

B1: 4-1BB IgG (SAP3.28 IgG), anti-hu4-1BB chimeric antibody (antibody, V domains shown)
VH: QVQLQESGPGLVRPSQTLSLTCTVSGFSLTSYGVHWVRQPPGRGLEWIGVIWRGGSTDYNAAFMSRLSITKDNSKSQVFFEMNSLQADDTAIYYCASPLGTSWDAMDYWGQGSLVTVSS
VL: DIQMTQSPSSLSASVGDRVTITCRASQDISNYLNWYQQKPGKAPKLLIYYKSRLHSGVPSRFSGSGSGTDYTLTISSLQPEDFATYYCQQGNTLPYTFGQGTKVEIK
notes: Bivalent IgG with the Fc region of murine IgG1, supplied by Prof; M. Glennie; also called SAP3.28 mAb; 4-1EE IgG
[1]
  EC50 (read off the curve); NF-kB reporter, co-culture with CHO^huFcγRIIb [Cont.) c]: ~1 nM
[2]
  EC50 (read off the curve): ~0.2 µg/mL

B2: urelumab (anti-hu4-1BB, BMS-663513) (antibody, V domains shown)
VH: QVQLQQWGAGLLKPSETLSLTCAVYGGSFSGYYWSWIRQSPEKGLEWIGEINHGGYVTYNPSLESRVTISVDTSKNQFSLKLSSVTAADTAVYYCARDYGPGNYDWYFDLWGRGTLVTVSS
VL: EIVLTQSPATLSLSPGERATLSCRASQSVSSYLAWYQQKPGQAPRLLIYDASNRATGIPARFSGSGSGTDFTLTISSLEPEDFAVYYCQQRSNWPPALTFGGGTKVEIK
[1]
  EC50 (read off the curve); NF-kB reporter, co-culture with CHO [Cont.) c]: ~0.1 nM
  EC50 (read off the curve); NF-kB reporter, co-culture with CHO^huFcγRIIb [Cont.) c]: ~0.06 nM
